How the values were obtained:
[1] = target: Monomer-enriched preparation of the Aβ1-42 peptide (W. M. Keck Facility peptide); experiment: ELISA, coated 2.2 µM; Ab 1:2 (start 0.5 µg/ml); mean of 3
[2] = target: Oligomer-enriched preparation of the Aβ1-42 peptide (W. M. Keck Facility peptide); experiment: as above
[3] = target: Monomer-enriched preparation of the Aβ1-42 peptide (W. M. Keck Facility peptide); experiment: ELISA, coated 2.2 µM; Ab 1:4 (start 0.5 µg/ml); mean of 3
[4] = target: Oligomer-enriched preparation of the Aβ1-42 peptide (W. M. Keck Facility peptide); experiment: ELISA, coated 2.2 µM; Ab 1:8 (start 0.5 µg/ml); mean of 3
[5] = target: Monomer-enriched preparation of the Aβ1-42 peptide (W. M. Keck Facility peptide); experiment: ELISA, coated 2.2 µM; Ab 1:16 (start 0.5 µg/ml); mean of 3
[6] = target: Monomer-enriched preparation of the Aβ1-42 peptide (W. M. Keck Facility peptide); experiment: ELISA, coated 2.2 µM; Ab 1:32 (start 0.5 µg/ml); mean of 3
[7] = target: Oligomer-enriched preparation of the Aβ1-42 peptide (W. M. Keck Facility peptide); experiment: as above
[8] = target: Oligomer-enriched preparation of the Aβ1-42 peptide (W. M. Keck Facility peptide); experiment: ELISA, coated 2.2 µM; Ab 1:64 (start 0.5 µg/ml); mean of 3
[9] = target: Oligomer-enriched preparation of the Aβ1-42 peptide (W. M. Keck Facility peptide); experiment: ELISA, coated 2.2 µM; Ab 1:128 (start 0.5 µg/ml); mean of 3

Chain of Monomer-enriched preparation of the Aβ1-42 peptide (W. M. Keck Facility peptide) (peptide, as listed by the source): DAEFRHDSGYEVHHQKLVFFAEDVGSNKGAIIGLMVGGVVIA
Chain of Oligomer-enriched preparation of the Aβ1-42 peptide (W. M. Keck Facility peptide) (peptide, as listed by the source): as above

6E10 control antibody
O.D. [1]: 3.59 O.D.
O.D. [2]: 3.59 O.D.
O.D. [3]: 3.27 O.D.
O.D. [4]: 2.98 O.D.
O.D. [5]: 1.98 O.D.
O.D. [6]: 1.36 O.D.
O.D. [7]: 1.32 O.D.
O.D. [8]: 0.92 O.D.
O.D. [9]: 0.63 O.D.

From US20100291097A1
